Measurements published in US20240066061A1.

B1: CXCL9 (ligand, UniProt Q07325 23-125, looked up)
chain: TPVVRKGRCSCISTNQGTIHLQSLKDLKQFAPSPSCEKIEIIATLKNGVQTCLNPDSADVKELIKKWEKQVSQKKKQKNGKKHQKKKVLKVRKSQRSRQKKTT
B2: CXCL11 (ligand, UniProt O14625 22-94, looked up)
chain: FPMFKRGRCLCIGPGVKAVKVADIEKASIMYPSNNCDKIEVIITLKENKGQRCLNPKSKQARLIIKKVERKNF

Target: chemokine receptor CXCR3 (human) (UniProt P49682)
Test: cell-based or functional assay

Chain of UniProt P49682 (P49682 whole entry): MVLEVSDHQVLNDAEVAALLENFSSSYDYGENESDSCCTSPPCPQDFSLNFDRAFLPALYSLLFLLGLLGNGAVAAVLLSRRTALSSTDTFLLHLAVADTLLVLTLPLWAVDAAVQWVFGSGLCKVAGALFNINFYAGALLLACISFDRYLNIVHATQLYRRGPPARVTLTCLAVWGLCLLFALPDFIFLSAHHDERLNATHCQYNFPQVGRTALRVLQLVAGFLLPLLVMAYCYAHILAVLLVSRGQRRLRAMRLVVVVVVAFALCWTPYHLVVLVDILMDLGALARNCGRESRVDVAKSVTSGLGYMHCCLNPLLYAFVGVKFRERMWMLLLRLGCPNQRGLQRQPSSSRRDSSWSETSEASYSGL

Row | Molecule | chemokine concentration at maximum cell migration of CD8+ TSCM [ng/mL] | chemotactic index, in-vitro transwell migration of human T cells | fold enrichment of CXCR3+ cells after 21 days stimulation with CMV epitopes and CXCL11 [fold]
1 | CXCL10 (from UniProt P02778 22-98) (ligand) | 100 | 2 | –
2 | B1 | 100 | 2 | –
3 | B2 | 100 | 2 | 10000
